In US11072592B2, “Small molecules that enable cartilage rejuvenation” (The Regents of the University of California, priority 2015, dated 2021):

How the values were obtained:
pSTAT3 and MYC [1] = assay: Western blot of pSTAT3 and MYC in adult pig articular chondrocytes; format: cell-based; conditions: adult pig articular chondrocytes; for ability of both LIF and RCGD 423 to induce increases in pSTAT3 and MYC: inhibitor plus LIF or RCGD 423; for levels of MYC / levels of pSTAT3: treated vs untreated, relative to histone H3
Description: Only early passages of chondrocytes (passage 0-2) were used for experimentation to avoid de-differentiation and loss of cartilage phenotype (Wu et al., 2014). Cartilage explants were made using 1, 2 or 8 mm biopsy punch and wet weight of each explant determined prior to experimentation. For cell isolation cartilage tissue was digested as described previously (Wu et al., 2015). Postnatal paraffin embedded joint and growth plate specimens were kindly donated by Dr Marcel Karperien from the University of Twente (Netherlands) and Dr Nick Bernthal from University of California Los Angeles. All donated material was anonymous and carried no personal identifiers. Cell culture reagents were purchased from Life Technologies, Inc. (Grand Island, N.Y.). Growth factors LIF, OSM, IL-6, TNF-α, IL-1β were purchased from Life Technologies, Inc (Grand Island, N.Y.). STATTIC, 10058-F4, SCl44 hydrochloride, and CP-690550 were purchased from Sigma Aldrich (St. Louis, Mo.). RCGD 423 (N-(4-Bromophenyl)-4-phenyl-1,3-thiazol-2-amine) was synthesized and provided by MolPort (Riga, Latvia). Fetal, adult and pig chondrocytes were cultured in DMEM F12 medium containing 10% (vol/vol) fetal bovine serum and 1% Penicillin-Streptomycin (vol/vol) at 37° C. in a humidified atmosphere of 95% aid and 5% CO2. Media was replenished with DMEM F12 medium containing 1% (vol/vol) fetal bovine serum and 1% Penicillin-Streptomycin (vol/vol) once treatments were added. For 3-dimensional (3D) cell cultures adult human articular chondrocytes were incubated with or without RCGD 423 using 10% solution of Mebiol® hydrogel from Cosmo Bio (Carlsbad, Calif.) in X-vivo 15 serum free medium from Lonza (Walkersville, Md.) as described previously (Wu et al., 2014).
(§1) Treated and non-treated ells were lysed in RIPA Lysis and Extraction Buffer (Pierce, Rockford, Ill.) containing protease inhibitors (Pierce) followed by sonication with a 15-second pulse at a power output of 2 using the VirSonic 100 (SP Industries Company, Warminster, Pa.). Protein concentrations were determined by BCA protein assay (Pierce). Proteins were resolved with SDS-PAGE utilizing 4-15% Mini-PROTEAN TGX Precast Gels and transferred to Trans-Blot Turbo Transfer Packs with a 0.2-μm pore-size nitrocellulose membrane. The SDS-PAGE running buffer, 4-15% Mini-PROTEAN TGX Precast Gels, Trans-Blot Turbo Transfer Packs with a 0.2-μm pore-size nitrocellulose membrane were purchased from Biorad (Hercules, Calif.). Nitrocellulose membranes were blocked in 5% nonfat milk in 0.05% (v/v) Tween 20 (PBST) (Corning, Manassas, Va.). Membranes were then incubated with primary antibodies phospho-STAT3 (#9131), MYC (#5605), NF-κB p65 (#D14E12), pAKT (#9272) Histone 3 (#9715) from Cell Signaling, (Danvers, Mass.); MEK1/2 (ab70613) and p38 (ab795) from Abcam (Cambridge, Mass.) overnight. After washing in PBS containing 0.05% (v/v) Tween 20 (PBST), membranes were incubated with Goat anti-Rabbit IgG (H+L) Secondary Antibody (Thermo Scientific Rockford, Ill.). After washing, membranes were developed with the Clarity Western ECL Blotting Substrate (Hercules, Calif.).

cartilage explants = assay: Cartilage explant culture: tissue expansion, COL2 and GAG content; format: cell-based, pig; conditions: cartilage explants/plugs in culture
Description: The same stimulatory effect was achieved after treatment of explants with CRMs identified in our small molecule screen. […] This can test if activation of p-STAT3 and c-MYC by selected small molecules CRM-398 and -423 can result in in situ expansion of articular cartilage tissue.
Mature articular cartilage is comprised of chondrocytes contained within lacunae surrounded by dense extracellular matrix. In order for a regenerative response to occur, proliferation, survival and migration must all proceed in concert. […] We designed two sets of experiments to assess the ability of RCGD 423 to operate in this capacity. First, RCGD 423 or cytokines implicated in the growth and differentiation of articular cartilage were incubated with small plugs of cartilage tissue; after 5 weeks, the amount of COL2 and glycosaminoglycans (GAGs) were determined.
Cartilage explants were washed with PBS and then directly digested or stored at […]. For digestion, explants were transferred in digestion buffer composed of 1 mg/mL proteinase K in Tris/Ethylene diamine tetra-acetic acid (EDTA) buffer (pH 7.6) containing 18.5 μg/mL iodoacetamide and 1 μg/mL pepstatin A) for 16-72 h at 56° C. After complete digestion the GAG content was spectrophotometrically determined with 1,9-dimethylmethylene blue chloride staining in the phosphate buffer with ethylene diamine tetra-acetic acid buffer (14.2 g/L Na2HPO4 and 3.72 g/L Na2EDTA, pH 6.5) using an Infinite M1000 Pro microplate reader (Tecan) at an absorbance of 520 nm with chondroitin sulfate as a standard. Amount of total DNA in explants was determined by a CyQuant DNA Kit (Molecular Probes by Life Technology) using Qubit 1.0 fluorometer (Invitrogen).
Cultured explants were first digested in testicular hyaluronidase (0.05% in 50 mM HEPES) for 2 hours at 37° C. 0.5M glacial acetic acid was added to digestion solution to maximize the collagen swelling and provide best pepsin access. Pepsin (250 μg/ml) was then used to further digest the pellets in combination with rotation and occasional gentle vortexing at 4° C. for 18-24 hours. Cold tris base and NaOH were added to the digestion solution to neutralize the acetic acid. Digestion solution was vigorously vortexed immediately, and subsequently rotated at 4° C. overnight to maximize collagen solubility. Tubes were centrifuged to separate undigested tissue and supernatant. Any undigested tissue was subjected to the digestion process again. All supernatants were combined for ELISA. Concentration of collagen II in the supernatant was measured by Type I/II Collagen Detection Kit (Chondrex, Inc, Redmond, Wash.), according to manufacturer's instruction and normalized either to DNA content or wet weight of the explants determined prior to experimentation.

[2] = test system: MAPK, AKT, NF-κB pathways; assay: Western blot of MAPK, AKT and NF-κB signaling in adult pig articular chondrocytes; format: cell-based; conditions: 24 hours
Protocol: FIGS. 30A-30B. […] (FIG. 30A) Adult pig articular chondrocytes were cultured for 24 hours with the indicated cytokines or RCGD 423 and the levels of pSTAT3 and MYC were measured with respect to histone H3. Representative data for other proteins in the MAPK (p38 and MEK1/2), AKT (phospho-AKT; pAKT) or NF-KB (NF-KB p65) are also shown. (FIG. 30B) Levels of transcription of genes indicative of a catabolic response were determined via quantitative PCR in adult pig articular chondrocytes treated with OSM, IL-6, TNF-α, LIF or RCGD 423. Data are represented at mean±SD.
Cartilage degeneration is generally considered a feed-forward process, in which small losses of chondrocytes result in microenvironmental changes including induction of an inflammatory response and other pro-catabolic events (Hunziker, 2002). In turn, these alterations in the joint milieu promote production of matrix degrading proteins including MMPs (collagenases) and proteins of the ADAMTS family (aggrecanases). LIF has been implicated in promoting this cycle of matrix destruction during the pathogenesis of osteoarthritis (Hui et al., 2000; Lotz et al., 1992), although its role in this process has been controversial. In order to better understand the mechanism of action of LIF, RCGD 423 and known pro-inflammatory cytokines in the promotion of degeneration, we stimulated adult pig articular chondrocytes with these molecules and quantitated the levels of activated downstream proteins that mediate the cellular signaling response (FIG. 30A).
as §1

pSTAT3 and MYC [3] = assay: Western blot of pSTAT3 and MYC in human fetal articular chondrocytes; format: cell-based; conditions: 72 hours
Description: Moreover, LIFR expression is localized to chondrocytes in the superficial zone of articular cartilage throughout ontogeny. In contrast, LIF expression is strongest during fetal development and then diminishes over time (Table S1). […] LIF signals through a heterodimeric receptor comprised of LIFR and gp130 (IL6RST); upon binding extracellular ligand, both receptors are phosphorylated and recruit members of the JAK family which in turn phosphorylate STAT3 (pSTAT3). pSTAT3 then enters the nucleus to act as a transcriptional regulator. […] We first performed ELISA on human fetal and adult synovial fluid to determine if LIF protein levels change over time. […] Western blot analysis of the downstream effectors of LIF signaling, pSTAT3 and MYC, further supported reduced levels of LIF signaling in adult articular cartilage (FIG. 26A). We then confirmed that adolescent and adult articular chondrocytes in the superficial zone express both receptors required for LIF signaling (FIG. 33) and that these cells are the most anabolic of adult chondrocytes (FIGS. 34A-34B). Because STAT3 and MYC can respond to a variety of stimuli, we next wanted to determine if the increased levels of pSTAT3 and MYC in fetal cells were a direct result of increased LIF/LIFR signaling.
as §1

Which “ability of both LIF and RCGD 423 to induce increases in pSTAT3 and MYC” value (pSTAT3 and MYC [1]) does the source give for `C[C@@H]1CCN(C(=O)CC#N)C[C@@H]1N(C)c1ncnc2[nH]ccc12` [JAK inhibitor, reference compound] here?
The value was “greatly reduced”.

Which “ability of both LIF and RCGD 423 to induce increases in pSTAT3 and MYC” value (pSTAT3 and MYC [1]) does the source give for `Cl.O=C(NNc1nc2cc(F)ccc2n2cccc12)c1cnccn1` [gp130 inhibitor, reference compound] here?
Its value is “greatly reduced”.

Which “expansion of cartilage tissue in explants” value (shortened to “expansion”) (cartilage explants) does the source give for TGF-beta 1: morphogen here?
The value was “little or no effect”.

B1: GDF5: BMPR1B ligand (protein, UniProt P43026 382-501, looked up)
Growth/differentiation factor …: APLATRQGKRPSKNLKARCSRKALHVNFKDMGWDDWIIAPLEYEAFHCEGLCEFPLRSHLEPTNHAVIQTLMNSMDPESTPPTCCVPTRLSPISILFIDSANNVVYKQYEDMVVESCGCR
With B1 as the molecule, how does the “expansion” value (cartilage explants) read?
The value was “little or no effect”.

B2: OSM: IL-6 family cytokine oncostatin M (protein, UniProt P13725 26-221, looked up)
Oncostatin-M: AAIGSCSKEYRVLLGQLQKQTDLMQDTSRLLDPYIRIQGLDVPKLREHCRERPGAFPSEETLRGLGRRGFLQTLNATLGCVLHRLADLEQRLPKAQDLERSGLNIEDLEKLQMARPNILGLRNNIYCMAQLLDNSDTAEPTKAGRGASQPPTPTPASDAFQRKLEGCRFLHGYHRFMHSVGRVFSKWGESPNRSRR
With B2 as the molecule, how does the pro-inflammatory response [2] read?
The pro-inflammatory response was “strong pro-inflammatory response”.

And the “levels of MYC” value (pSTAT3 and MYC [1])?
The value was “does not elicit any upregulation”.

And the “levels of pSTAT3” value (pSTAT3 and MYC [1])?
Its value is “does not elicit any upregulation”.

B3: IL-la: inflammatory cytokine (protein, UniProt P01583 113-271, looked up)
Interleukin-1 alpha: SAPFSFLSNVKYNFMRIIKYEFILNDALNQSIIRANDQYLTAAALHNLDEAVKFDMGAYKSSKDDAKITVILRISKTQLYVTAQDEDQPVLLKEMPEIPKTITGSETNLLFFWETHGTKNYFTSVAHPNLFIATKQDYWVCLAGGPPSITDFQILENQA
How did the “levels of MYC” value (pSTAT3 and MYC [1]) turn out when B3 was run?
The value was “inhibit accumulation”.

And the “levels of pSTAT3” value (pSTAT3 and MYC [1])?
Its value is “inhibit accumulation”.

B4: BMP4: driver of chondrocyte hypertrophy (protein, UniProt P12644 293-408, looked up)
Bone morphogenetic protein 4: SPKHHSQRARKKNKNCRRHSLYVDFSDVGWNDWIVAPPGYQAFYCHGDCPFPLADHLNSTNHAIVQTLVNSVNSSIPKACCVPTELSAISMLYLDEYDKVVLKNYQEMVVEGCGCR
How did the “expansion” value (cartilage explants) turn out when B4 was run?
Its value is “little or no effect”.

B5: sLIFR: soluble LIFR, which binds and sequesters LIF (protein, UniProt P42702 45-833, looked up)
extracellular domain: QKKGAPHDLKCVTNNLQVWNCSWKAPSGTGRGTDYEVCIENRSRSCYQLEKTSIKIPALSHGDYEITINSLHDFGSSTSKFTLNEQNVSLIPDTPEILNLSADFSTSTLYLKWNDRGSVFPHRSNVIWEIKVLRKESMELVKLVTHNTTLNGKDTLHHWSWASDMPLECAIHFVEIRCYIDNLHFSGLEEWSDWSPVKNISWIPDSQTKVFPQDKVILVGSDITFCCVSQEKVLSALIGHTNCPLIHLDGENVAIKIRNISVSASSGTNVVFTTEDNIFGTVIFAGYPPDTPQQLNCETHDLKEIICSWNPGRVTALVGPRATSYTLVESFSGKYVRLKRAEAPTNESYQLLFQMLPNQEIYNFTLNAHNPLGRSQSTILVNITEKVYPHTPTSFKVKDINSTAVKLSWHLPGNFAKINFLCEIEIKKSNSVQEQRNVTIKGVENSSYLVALDKLNPYTLYTFRIRCSTETFWKWSKWSNKKQHLTTEASPSKGPDTWREWSSDGKNLIIYWKPLPINEANGKILSYNVSCSSDEETQSLSEIPDPQHKAEIRLDKNDYIISVVAKNSVGSSPPSKIASMEIPNDDLKIEQVVGMGKGILLTWHYDPNMTCDYVIKWCNSSRSEPCLMDWRKVPSNSTETVIESDEFRPGIRYNFFLYGCRNQGYQLLRSMIGYIEELAPIVAPNFTVEDTSADSILVKWEDIPVEELRGFLRGYLFYFGKGERDTSKMRVLESGRSDIKVKNITDISQKTLRIADLQGKTSYHLVLRAYTDGGVGPEKSMYVVTKENS
modifications: extracellular domain
How did the “levels of MYC” value (pSTAT3 and MYC [3]) turn out when B5 was run?
Its value is “substantially reduced”.

What about the “levels of pSTAT3” value (pSTAT3 and MYC [3]) of the same molecule?
The value was “substantially reduced”.

What about the “levels of MYC” value (pSTAT3 and MYC [3]; listed as LIFR) of the same molecule?
Its value is “reduces”.

What about the “levels of pSTAT3” value (pSTAT3 and MYC [3]; listed as LIFR) of the same molecule?
Its value is “reduces”.

What about the “levels of MYC” value (pSTAT3 and MYC [3]; listed as soluble LIF receptor) of the same molecule?
The value was “reduces”.

What about the “levels of pSTAT3” value (pSTAT3 and MYC [3]; listed as soluble LIF receptor) of the same molecule?
The value was “reduces”.
